The term Kd denotes a measure of binding affinity in units of concentration. Read a high Kd as lower affinity. The term koff denotes the rate constant with which the complex falls apart. Lower therefore signals a long-lived complex. By kon is commonly meant the second-order rate constant of association. A high value points to fast association.

The target in assay [1] is T1, KW27-6 (human CD39 mutant, C-terminal EGFP) (human, UniProt P49961 1-510).
T1 construct: expressed on HEK293F cells; not shown: C-terminal EGFP fusion (vector pCMV3-GFPSpark)
T1 chain: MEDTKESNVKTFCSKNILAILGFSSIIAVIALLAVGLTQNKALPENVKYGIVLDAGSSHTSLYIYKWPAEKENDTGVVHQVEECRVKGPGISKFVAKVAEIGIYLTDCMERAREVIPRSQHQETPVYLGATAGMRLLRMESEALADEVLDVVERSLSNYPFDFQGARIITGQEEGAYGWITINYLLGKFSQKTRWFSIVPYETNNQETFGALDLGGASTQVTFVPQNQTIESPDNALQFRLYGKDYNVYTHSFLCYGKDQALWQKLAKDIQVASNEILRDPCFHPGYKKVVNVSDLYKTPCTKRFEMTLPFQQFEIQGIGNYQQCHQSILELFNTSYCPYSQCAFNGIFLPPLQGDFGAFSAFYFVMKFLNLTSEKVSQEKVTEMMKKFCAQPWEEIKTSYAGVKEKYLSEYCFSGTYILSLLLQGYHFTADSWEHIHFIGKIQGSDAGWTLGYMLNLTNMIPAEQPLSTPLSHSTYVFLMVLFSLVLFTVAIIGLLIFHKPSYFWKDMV
The experiment in a line: FACS on transfected HEK293F cells, relative binding = AlexaFluor647 / GFP. As to the method:
(§1) Briefly, the human CD39 mutants were generated by gene synthesis and then cloned into an expression vector pCMV3-GFPSpark. The vectors containing the validated mutated sequences were prepared and transfected into HEK293F cells. Three days post transfection, the cells were collected to testing EGFP for transgene expression. A range of dosages of antibodies (start from 100 nM, 3-folds dilution, 11 points) were tested on the 20 generated mutants and stained by AlexFluor647 labelled anti-hIgG by FACS. Antibody binding was descripted as relative binding which is derived from AlexFluor647 intensity divided by GFP intensity.

A further assay deals with T2, kw27 (Intracellular C-terminal EGFP fusion, left out of the letters).
T2 construct: not shown: C-terminal EGFP (GFPSpark) reporter of vector pCMV3-GFPSpark and any linker to it
T2 chain: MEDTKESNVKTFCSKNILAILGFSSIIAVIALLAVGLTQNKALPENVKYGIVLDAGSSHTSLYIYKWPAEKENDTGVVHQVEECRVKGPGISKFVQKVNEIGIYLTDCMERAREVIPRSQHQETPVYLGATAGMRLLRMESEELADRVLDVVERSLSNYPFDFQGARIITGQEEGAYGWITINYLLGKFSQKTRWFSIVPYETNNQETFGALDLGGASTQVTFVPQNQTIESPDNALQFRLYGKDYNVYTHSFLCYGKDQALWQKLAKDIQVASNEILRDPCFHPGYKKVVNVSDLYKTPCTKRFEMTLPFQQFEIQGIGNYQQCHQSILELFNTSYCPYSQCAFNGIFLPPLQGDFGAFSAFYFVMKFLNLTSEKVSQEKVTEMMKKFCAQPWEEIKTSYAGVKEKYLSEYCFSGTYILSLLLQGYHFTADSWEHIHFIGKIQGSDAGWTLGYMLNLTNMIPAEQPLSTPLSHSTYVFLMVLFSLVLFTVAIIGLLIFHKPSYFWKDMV
The assay is described as above. As to the method: as §1

Assay [2] addresses T3, KW27-20 (human CD39 mutant, C-terminal EGFP) (human, UniProt P49961 1-510).
T3 construct: expressed on HEK293F cells; not shown: C-terminal EGFP fusion (vector pCMV3-GFPSpark)
T3 chain: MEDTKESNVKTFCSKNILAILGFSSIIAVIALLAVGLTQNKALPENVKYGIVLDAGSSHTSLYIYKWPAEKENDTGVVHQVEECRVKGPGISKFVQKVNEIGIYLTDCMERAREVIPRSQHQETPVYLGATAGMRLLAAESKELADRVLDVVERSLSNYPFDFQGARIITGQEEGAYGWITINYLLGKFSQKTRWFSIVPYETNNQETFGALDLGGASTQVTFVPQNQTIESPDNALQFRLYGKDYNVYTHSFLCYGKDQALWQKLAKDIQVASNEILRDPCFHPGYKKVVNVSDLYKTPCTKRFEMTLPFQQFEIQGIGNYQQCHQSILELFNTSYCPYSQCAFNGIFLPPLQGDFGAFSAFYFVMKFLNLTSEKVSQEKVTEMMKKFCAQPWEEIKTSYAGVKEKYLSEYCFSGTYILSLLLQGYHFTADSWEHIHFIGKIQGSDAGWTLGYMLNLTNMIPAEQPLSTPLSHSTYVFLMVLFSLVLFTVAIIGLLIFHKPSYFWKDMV
Described as above. As to the method: as §1

Assay [3] addresses T4, human CD39 (protein; form not stated) (human, UniProt P49961 38-478, limits assumed).
T4 construct: also called ENTPD1; ENTPDase 1
T4 sequence: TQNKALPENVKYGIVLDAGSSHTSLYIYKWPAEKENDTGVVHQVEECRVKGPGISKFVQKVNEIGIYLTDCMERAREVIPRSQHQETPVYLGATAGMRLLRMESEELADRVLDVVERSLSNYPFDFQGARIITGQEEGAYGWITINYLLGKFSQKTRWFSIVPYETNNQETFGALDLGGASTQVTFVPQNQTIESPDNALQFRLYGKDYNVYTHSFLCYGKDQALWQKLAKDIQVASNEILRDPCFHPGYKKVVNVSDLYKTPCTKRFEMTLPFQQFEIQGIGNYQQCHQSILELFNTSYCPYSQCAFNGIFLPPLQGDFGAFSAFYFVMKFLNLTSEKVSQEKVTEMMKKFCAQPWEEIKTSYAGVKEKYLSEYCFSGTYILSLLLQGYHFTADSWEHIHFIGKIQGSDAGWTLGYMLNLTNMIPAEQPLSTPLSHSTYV
The experiment in a line: Octet (BLI), antibody on sensor, CD39 in solution. As to the method: Briefly, the antibodies were coupled on sensors and then the sensors were dipped into CD39 gradients (start at 200 nM, with 2-fold dilution and totally 8 doses). Their binding responses were measured in real-time and results were fit globally.

B1: c35 (antibody, V domains shown)
VH: EVRLQQSGAELVKPGASVKLSCTASGFNIEDTYVHWMKQRPEQGLEWIGRIDPAIDNSKYDPKFQGKATITAVSSSNTAYLQLSSLTSEDTAVYYCALYDGYNVYAMDYWGQGTSVTVSS
VL: DIVMTQAAFSNPVTLGTSASISCRSSKNLLHSNGITYLYWYLQRPGQSPQLLIYRASTLASGVPNRFSGSESGTDFTLRISRVEAEDVGVYYCAQLLELPHTFGGGTKLEIK
notes: its making is not described; also called chimeric antibody c35
B1: the binding result (in assay [1]; with kw27; in assay [2]) was “binds” each time.

B2: Antibody T895 (antibody, V domains shown)
VH: EVQLQQSGPELVKPGASVKMSCKASGYTFTDYNMHWVKQSHGRTLEWIGYIVPLNGGSTFNQKFKGRATLTVNTSSRTAYMELRSLTSEDSAAYYCARGGTRFAYWGQGTLVTVSA
VL: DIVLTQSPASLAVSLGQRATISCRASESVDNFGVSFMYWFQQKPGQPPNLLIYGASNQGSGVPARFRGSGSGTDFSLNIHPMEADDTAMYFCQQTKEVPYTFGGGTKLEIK
notes: also called 31895
For B2, the Kd in assay [3] stood at 6.62 nM. In assay [3], this molecule showed a koff of 0.00444 s⁻¹. In assay [3], this molecule returned a kon of 671000 M⁻¹ s⁻¹. Further, the binding result in assay [1] is “binds”; in the assay with kw27, “binds”; in assay [2] it was “no binding”.

B3: hu23.H5L5 (antibody, V domains shown)
VH: QVQLVQSGAEVKKPGASVKVSCKASGYNLKDTFLHWVRQAPGQGLEWMGRIDPANGNIKYDPKFQGRVTITADTSANTAYMELISLRSEDTAVYYCANSPYYYGSGYRIFDVWGQGTTVTVSS
VL: QIVLTQSPATLSLSPGERATLSCSAFSSVNYMHWYQQKPGQAPRLLIYTTSNLASGIPTRFSGSGSGTSYTLTISSLEPEDFAVYYCQQRSTYPFTFGQGTKLEIK
notes: humanized c23
As to B3, in assay [3], the Kd was 0.687 nM, the koff came out at 9.36e-05 s⁻¹ and the kon was determined as 136000 M⁻¹ s⁻¹. Moreover, the binding result in assay [1] is “no binding”. For the same molecule, in the assay with kw27, the binding result is “binds”.

B4: c34 (antibody, V domains shown)
VH: EIQVQQSGPELVKPGASVKVSCKASGYSFTDYNMYWVKQSHGKSLEWIGFIDPYNGYTSYNQKFKGKATLTIDKSSSTAFMHLNSLTSEDSAVYYCAIYGYDDAYYFDYWGQGTTLTVSS
VL: QIVLTQSPAIMSASPGEKVTITCSATSSVSYMHWFRQKPGTSPKLWIYSTSNLASGVPARFSGSGSGTSYSLTISRMAAEDAATYYCQQRITYPFTFGSGTKLEIT
notes: its making is not described; also called chimeric antibody c34
Turning to B4, the binding result (in assay [1]; in the assay with kw27; in assay [2]) was “binds” throughout.

B5: Antibody 9-8B (antibody, V domains shown)
VH: QIQLVQSGPELKKPGETVKISCKASGYTFTHYGMNWVKQAPGKGLKWMGWINTYTGELTYADDFKGRFAFSLETSASTAYLQINNLKNEDTATYFCARRAYYRYDYVMDYWGQGTSVTVSS
VL: DIVMTQSQKFMSTSVGDRVSVTCKASHNVGTNVAWYQQKPGQSPKALIYSASYRYSGVPGRFTGSGSGTDFTLTISNVQSEDLAEYFCHQYNNYPYTFGGGTKLEIK
In assay [3], B5 registered a Kd of 20.2 nM, a koff of 0.00243 s⁻¹ and an association rate constant (kon) of 120000 M⁻¹ s⁻¹. Moreover, the binding result in assay [1] is “no binding”. The binding result with kw27 is “binds”. Further, the binding result in assay [2] is “binds”.

These data come from patent US20210388105A1 (ELPISCIENCE SUZHOU BIOPHARMA, published 2021).
